# Source: US20140087995A1 (published 2014)
# Numbered stars: 1 amine (or outer) side, 2 acyl side, 3 side chain; on linkers, the order of the positions; unused ones are H or OH. Bridge positions count the residues as written; N and C are the ends. Side chains are listed from the residue outwards. Ends that are not written are not given here. * marks the point of attachment. C20 diacid = O=C(O)CCCCCCCCCCCCCCCCCCC(=O)*; γGlu = O=C(O)[C@H](CCC(=O)[*:2])N[*:1]
# T1: rat calcitonin receptor (rat, UniProt P32214 25-516)
# T1 construct: whole, on cells; also called rCTR; rat calcitonin (a) receptor
# T1 sequence (looked up): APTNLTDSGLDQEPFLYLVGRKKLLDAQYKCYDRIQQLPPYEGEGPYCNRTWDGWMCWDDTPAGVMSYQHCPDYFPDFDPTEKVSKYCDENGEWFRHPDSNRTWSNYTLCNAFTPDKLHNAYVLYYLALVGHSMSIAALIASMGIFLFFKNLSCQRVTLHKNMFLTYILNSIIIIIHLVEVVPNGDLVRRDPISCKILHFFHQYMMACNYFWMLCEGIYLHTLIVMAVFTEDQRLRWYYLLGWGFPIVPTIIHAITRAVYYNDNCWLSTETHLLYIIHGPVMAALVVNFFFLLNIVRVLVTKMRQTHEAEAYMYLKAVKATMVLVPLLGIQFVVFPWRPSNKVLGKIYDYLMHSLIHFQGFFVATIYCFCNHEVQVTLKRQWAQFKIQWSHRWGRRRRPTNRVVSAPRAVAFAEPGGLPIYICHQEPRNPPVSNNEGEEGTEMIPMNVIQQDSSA
# T2: rat amylin receptor (rat calcitonin receptor + rat RAMP 3) (rat, UniProt P32214 25-516; Q9JJ73 23-147)
# T2 construct: whole, on cells; also called rAmylin-R; rat amylin 3(a) receptor
# T2 sequence (looked up) 1: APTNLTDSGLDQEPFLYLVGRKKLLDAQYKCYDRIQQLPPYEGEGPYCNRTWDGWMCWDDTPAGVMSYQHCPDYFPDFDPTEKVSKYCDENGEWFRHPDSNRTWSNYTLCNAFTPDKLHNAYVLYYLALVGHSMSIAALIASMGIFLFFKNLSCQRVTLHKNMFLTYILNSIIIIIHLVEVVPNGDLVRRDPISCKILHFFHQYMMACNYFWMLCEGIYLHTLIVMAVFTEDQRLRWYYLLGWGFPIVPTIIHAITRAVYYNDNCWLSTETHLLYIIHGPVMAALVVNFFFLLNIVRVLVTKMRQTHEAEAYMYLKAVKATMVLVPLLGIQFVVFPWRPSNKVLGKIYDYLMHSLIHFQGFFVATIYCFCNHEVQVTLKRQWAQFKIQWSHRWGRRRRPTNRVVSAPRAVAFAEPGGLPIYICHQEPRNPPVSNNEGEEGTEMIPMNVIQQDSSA
# T2 sequence (looked up) 2: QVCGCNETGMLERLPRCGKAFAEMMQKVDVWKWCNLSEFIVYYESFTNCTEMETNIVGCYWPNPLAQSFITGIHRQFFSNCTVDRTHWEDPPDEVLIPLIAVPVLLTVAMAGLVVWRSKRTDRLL
# T3: human calcitonin receptor (human, UniProt P30988 25-474)
# T3 construct: whole, on cells; also called hCTR; hCT
# T3 sequence (looked up): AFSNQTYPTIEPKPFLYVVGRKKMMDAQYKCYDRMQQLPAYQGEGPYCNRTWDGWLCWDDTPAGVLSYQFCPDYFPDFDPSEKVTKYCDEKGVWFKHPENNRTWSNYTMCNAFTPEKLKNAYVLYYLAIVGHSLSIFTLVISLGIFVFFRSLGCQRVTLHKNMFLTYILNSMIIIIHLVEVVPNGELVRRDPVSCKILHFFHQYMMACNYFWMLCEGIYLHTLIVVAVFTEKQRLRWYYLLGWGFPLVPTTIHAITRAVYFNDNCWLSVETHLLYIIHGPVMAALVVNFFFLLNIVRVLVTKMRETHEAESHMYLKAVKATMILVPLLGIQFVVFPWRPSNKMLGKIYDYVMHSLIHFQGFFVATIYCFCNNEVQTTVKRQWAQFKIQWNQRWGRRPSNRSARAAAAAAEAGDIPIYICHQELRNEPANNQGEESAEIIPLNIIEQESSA
# Legend:
# rat calcitonin receptor [1] = target: T1, rat calcitonin receptor; assay: ratio of binding IC50s: rat calcitonin receptor over rat amylin receptor (reference)
# rat calcitonin receptor [2] = target: T1, rat calcitonin receptor; assay: SPA competition with 125I-calcitonin, membranes of BHK cells with rat calcitonin receptor (Assay VIII)
# [3] = target: T2, rat amylin receptor (rat calcitonin …); assay: SPA competition with 125I-rat amylin, membranes of BHK cells with rat calcitonin receptor + rat RAMP3 (Assay VI)
# [4] = target: T3, human calcitonin receptor; assay: ratio of binding IC50s: human calcitonin receptor over human amylin receptor (reference)
# Summary of the method: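 Membranes (35 ng/μL final) + SPA beads, 50 mM Hepes pH 7.4 buffer with 1 mM CaCl2, 5 mM MgCl₂, 0.1% OA, 0.02% Tween20; 120 min, 25° C, shaking; centrifuged, counted; IC₅₀ by one-site binding competition.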
Ratio rCT/rAmylin binding (rat calcitonin receptor [1]),IC50 (rat calcitonin receptor [2]) [nM],IC50 [3] [nM],Ratio hCT/hAmylin binding [4],Binder
96.5,34.2,0.355,60.8,"K([γGlu-C20 diacid])CNTATCATQRLAHFLRHSSPNFGAIPSSTNVGSNTY-NH2 (disulfide 2-7; N-terminus assumed; SMILES CC[C@H](C)[C@H](NC(=O)[C@H](C)NC(=O)CNC(=O)[C@H](Cc1ccccc1)NC(=O)[C@H](CC(N)=O)NC(=O)[C@@H]1CCCN1C(=O)[C@H](CO)NC(=O)[C@H](CO)NC(=O)[C@H](Cc1c[nH]cn1)NC(=O)[C@H](CCCNC(=N)N)NC(=O)[C@H](CC(C)C)NC(=O)[C@H](Cc1ccccc1)NC(=O)[C@H](Cc1c[nH]cn1)NC(=O)[C@H](C)NC(=O)[C@H](CC(C)C)NC(=O)[C@H](CCCNC(=N)N)NC(=O)[C@H](CCC(N)=O)NC(=O)[C@@H](NC(=O)[C@H](C)NC(=O)[C@@H]1CSSC[C@H](NC(=O)[C@@H](N)CCCCNC(=O)CC[C@H](NC(=O)CCCCCCCCCCCCCCCCCCC(=O)O)C(=O)O)C(=O)N[C@@H](CC(N)=O)C(=O)N[C@@H]([C@@H](C)O)C(=O)N[C@@H](C)C(=O)N[C@@H]([C@@H](C)O)C(=O)N1)[C@@H](C)O)C(=O)N1CCC[C@H]1C(=O)N[C@@H](CO)C(=O)N[C@@H](CO)C(=O)N[C@H](C(=O)N[C@@H](CC(N)=O)C(=O)N[C@H](C(=O)NCC(=O)N[C@@H](CO)C(=O)N[C@@H](CC(N)=O)C(=O)N[C@H](C(=O)N[C@@H](Cc1ccc(O)cc1)C(N)=O)[C@@H](C)O)C(C)C)[C@@H](C)O, synthetic analogue of human amylin; also called compound 70) [N^ε1-[(4S)-4-carboxy-4-(19-carboxynonadecanoylamino)butanoyl]-[His14,Arg17,Pro21,Pro27]-h-amylin]"
84.9,196,2.31,46.5,"K([γGlu-γGlu-C20 diacid])CNTATCATQRLAEFLRHSSPNFGAIPSSTNVGRNTY-NH2 (disulfide 2-7; N-terminus assumed; SMILES CC[C@H](C)[C@H](NC(=O)[C@H](C)NC(=O)CNC(=O)[C@H](Cc1ccccc1)NC(=O)[C@H](CC(N)=O)NC(=O)[C@@H]1CCCN1C(=O)[C@H](CO)NC(=O)[C@H](CO)NC(=O)[C@H](Cc1c[nH]cn1)NC(=O)[C@H](CCCNC(=N)N)NC(=O)[C@H](CC(C)C)NC(=O)[C@H](Cc1ccccc1)NC(=O)[C@H](CCC(=O)O)NC(=O)[C@H](C)NC(=O)[C@H](CC(C)C)NC(=O)[C@H](CCCNC(=N)N)NC(=O)[C@H](CCC(N)=O)NC(=O)[C@@H](NC(=O)[C@H](C)NC(=O)[C@@H]1CSSC[C@H](NC(=O)[C@@H](N)CCCCNC(=O)CC[C@H](NC(=O)CC[C@H](NC(=O)CCCCCCCCCCCCCCCCCCC(=O)O)C(=O)O)C(=O)O)C(=O)N[C@@H](CC(N)=O)C(=O)N[C@@H]([C@@H](C)O)C(=O)N[C@@H](C)C(=O)N[C@@H]([C@@H](C)O)C(=O)N1)[C@@H](C)O)C(=O)N1CCC[C@H]1C(=O)N[C@@H](CO)C(=O)N[C@@H](CO)C(=O)N[C@H](C(=O)N[C@@H](CC(N)=O)C(=O)N[C@H](C(=O)NCC(=O)N[C@@H](CCCNC(=N)N)C(=O)N[C@@H](CC(N)=O)C(=O)N[C@H](C(=O)N[C@@H](Cc1ccc(O)cc1)C(N)=O)[C@@H](C)O)C(C)C)[C@@H](C)O, synthetic analogue of human amylin; also called compound 88)"
45.6,94.5,2.07,35.6,"K([γGlu-γGlu-C20 diacid])CNTATCATQRLAEFLRHSSPNFGAIPSSTNVGHNTY-NH2 (disulfide 2-7; N-terminus assumed; SMILES CC[C@H](C)[C@H](NC(=O)[C@H](C)NC(=O)CNC(=O)[C@H](Cc1ccccc1)NC(=O)[C@H](CC(N)=O)NC(=O)[C@@H]1CCCN1C(=O)[C@H](CO)NC(=O)[C@H](CO)NC(=O)[C@H](Cc1c[nH]cn1)NC(=O)[C@H](CCCNC(=N)N)NC(=O)[C@H](CC(C)C)NC(=O)[C@H](Cc1ccccc1)NC(=O)[C@H](CCC(=O)O)NC(=O)[C@H](C)NC(=O)[C@H](CC(C)C)NC(=O)[C@H](CCCNC(=N)N)NC(=O)[C@H](CCC(N)=O)NC(=O)[C@@H](NC(=O)[C@H](C)NC(=O)[C@@H]1CSSC[C@H](NC(=O)[C@@H](N)CCCCNC(=O)CC[C@H](NC(=O)CC[C@H](NC(=O)CCCCCCCCCCCCCCCCCCC(=O)O)C(=O)O)C(=O)O)C(=O)N[C@@H](CC(N)=O)C(=O)N[C@@H]([C@@H](C)O)C(=O)N[C@@H](C)C(=O)N[C@@H]([C@@H](C)O)C(=O)N1)[C@@H](C)O)C(=O)N1CCC[C@H]1C(=O)N[C@@H](CO)C(=O)N[C@@H](CO)C(=O)N[C@H](C(=O)N[C@@H](CC(N)=O)C(=O)N[C@H](C(=O)NCC(=O)N[C@@H](Cc1c[nH]cn1)C(=O)N[C@@H](CC(N)=O)C(=O)N[C@H](C(=O)N[C@@H](Cc1ccc(O)cc1)C(N)=O)[C@@H](C)O)C(C)C)[C@@H](C)O, synthetic analogue of human amylin; also called compound 87)"
48.8,115,2.37,28,"K([γGlu-γGlu-C20 diacid])CNTATCATQRLAEFLRHSSPNFGAIPSSTNVGSRTY-NH2 (disulfide 2-7; N-terminus assumed; SMILES CC[C@H](C)[C@H](NC(=O)[C@H](C)NC(=O)CNC(=O)[C@H](Cc1ccccc1)NC(=O)[C@H](CC(N)=O)NC(=O)[C@@H]1CCCN1C(=O)[C@H](CO)NC(=O)[C@H](CO)NC(=O)[C@H](Cc1c[nH]cn1)NC(=O)[C@H](CCCNC(=N)N)NC(=O)[C@H](CC(C)C)NC(=O)[C@H](Cc1ccccc1)NC(=O)[C@H](CCC(=O)O)NC(=O)[C@H](C)NC(=O)[C@H](CC(C)C)NC(=O)[C@H](CCCNC(=N)N)NC(=O)[C@H](CCC(N)=O)NC(=O)[C@@H](NC(=O)[C@H](C)NC(=O)[C@@H]1CSSC[C@H](NC(=O)[C@@H](N)CCCCNC(=O)CC[C@H](NC(=O)CC[C@H](NC(=O)CCCCCCCCCCCCCCCCCCC(=O)O)C(=O)O)C(=O)O)C(=O)N[C@@H](CC(N)=O)C(=O)N[C@@H]([C@@H](C)O)C(=O)N[C@@H](C)C(=O)N[C@@H]([C@@H](C)O)C(=O)N1)[C@@H](C)O)C(=O)N1CCC[C@H]1C(=O)N[C@@H](CO)C(=O)N[C@@H](CO)C(=O)N[C@H](C(=O)N[C@@H](CC(N)=O)C(=O)N[C@H](C(=O)NCC(=O)N[C@@H](CO)C(=O)N[C@@H](CCCNC(=N)N)C(=O)N[C@H](C(=O)N[C@@H](Cc1ccc(O)cc1)C(N)=O)[C@@H](C)O)C(C)C)[C@@H](C)O, synthetic analogue of human amylin; also called compound 89)"
28.5,18.8,0.659,4.3,"KCNTATCATQRLADFLRHSSK([γGlu-γGlu-C20 diacid])NFGAIPSSTNVGSDTY-NH2 (disulfide 2-7; N-terminus assumed; SMILES CC[C@H](C)[C@H](NC(=O)[C@H](C)NC(=O)CNC(=O)[C@H](Cc1ccccc1)NC(=O)[C@H](CC(N)=O)NC(=O)[C@H](CCCCNC(=O)CC[C@H](NC(=O)CC[C@H](NC(=O)CCCCCCCCCCCCCCCCCCC(=O)O)C(=O)O)C(=O)O)NC(=O)[C@H](CO)NC(=O)[C@H](CO)NC(=O)[C@H](Cc1c[nH]cn1)NC(=O)[C@H](CCCNC(=N)N)NC(=O)[C@H](CC(C)C)NC(=O)[C@H](Cc1ccccc1)NC(=O)[C@H](CC(=O)O)NC(=O)[C@H](C)NC(=O)[C@H](CC(C)C)NC(=O)[C@H](CCCNC(=N)N)NC(=O)[C@H](CCC(N)=O)NC(=O)[C@@H](NC(=O)[C@H](C)NC(=O)[C@@H]1CSSC[C@H](NC(=O)[C@@H](N)CCCCN)C(=O)N[C@@H](CC(N)=O)C(=O)N[C@@H]([C@@H](C)O)C(=O)N[C@@H](C)C(=O)N[C@@H]([C@@H](C)O)C(=O)N1)[C@@H](C)O)C(=O)N1CCC[C@H]1C(=O)N[C@@H](CO)C(=O)N[C@@H](CO)C(=O)N[C@H](C(=O)N[C@@H](CC(N)=O)C(=O)N[C@H](C(=O)NCC(=O)N[C@@H](CO)C(=O)N[C@@H](CC(=O)O)C(=O)N[C@H](C(=O)N[C@@H](Cc1ccc(O)cc1)C(N)=O)[C@@H](C)O)C(C)C)[C@@H](C)O, synthetic analogue of human amylin; also called compound 59)"
